Test results reported in patent US20230407373A1 (priority 2020, published 2023).
Read-outs that look alike come from different tables or passages of the source.

Assays:
Format in all cases: binding
[1] = system: SARS-CoV-2 gRNA and sgRNAs; settings: for target (unweighted spectral count in RNP capture): Probe II capture, LC-MS/MS LFQ; for background (unweighted spectral count in control): no-probe control pull-down, used as background for Probe II
HCoV-OC43 gRNA and sgRNA = settings: for target (spectral count) / background (spectral count): type s_36_m, Probe II; for target (spectral count): HCoV-OC43-infected HCT-8 cells; for background (spectral count): uninfected-probe control
gRNA of HCoV-OC43 = settings: for target (spectral count) / background (spectral count): type g_36_m, 36 hpi, Probe I; for target (spectral count): HCoV-OC43-infected HCT-8 cells; for background (spectral count): uninfected-probe control
SARS-CoV-2 gRNA = settings: […]; LC-MS/MS; Probe I sample (first 199 lines of Table 2)
[2] = 36 hpi, type n_36_v, tested against no-probe control, FDR<10%
[3] = OC43 Probe II, 12 hpi (type n_12_v), infected cells, tested against no-probe control
[4] = OC43 Probe II, 24 hpi (type n_24_v), infected cells, tested against no-probe control
[5] = type n_48_v, 48 hpi, OC43 Probe II capture on infected cells
[6] = type n_48_v, 48 hpi, no-probe control on infected cells
[7] = type n_48_v: 48 hours post-infection, no-probe control on infected cells
[8] = type n_48_v: 48 hours post-infection, infected cells, OC43 Probe I, unweighted spectral count

| Molecule | target (unweighted spectral count in RNP capture) [1] | background (unweighted spectral count in control) [1] | target (unweighted spectral count, OC43 Probe II capture) (HCoV-OC43 gRNA and sgRNA; [2]) | target (unweighted spectral count) (HCoV-OC43 gRNA and sgRNA; [3]) | target (unweighted spectral count) (HCoV-OC43 gRNA and sgRNA; [4]) | target (unweighted spectral count, OC43 Probe II) (HCoV-OC43 gRNA and sgRNA; [5]) | background (unweighted spectral count, no-probe control) (HCoV-OC43 gRNA and sgRNA; [6]) | target (spectral count) (HCoV-OC43 gRNA and sgRNA; 36 hpi) | background (spectral count) (HCoV-OC43 gRNA and sgRNA; 36 hpi) | target (spectral count) (gRNA of HCoV-OC43) | background (spectral count) (gRNA of HCoV-OC43) | background (spectral count, no-probe control) (gRNA of HCoV-OC43; [7]) | target (unweighted spectral count of the protein in the RNP capture) (SARS-CoV-2 gRNA) | target (spectral count, OC43 Probe I RNP capture) (gRNA of HCoV-OC43; [8]) | further results |
| --- | --- | --- | --- | --- | --- | --- | --- | --- | --- | --- | --- | --- | --- | --- | --- |
| FUBP1: host protein, UniProt Q96AE4 (protein, UniProt Q96AE4 2-644, looked up) Far upstream element-binding …: ADYSTVPPPSSGSAGGGGGGGGGGGVNDAFKDALQRARQIAAKIGGDAGTSLNSNDYGYGGQKRPLEDGDQPDAKKVAPQNDSFGTQLPPMHQQQSRSVMTEEYKVPDGMVGFIIGRGGEQISRIQQESGCKIQIAPDSGGLPERSCMLTGTPESVQSAKRLLDQIVEKGRPAPGFHHGDGPGNAVQEIMIPASKAGLVIGKGGETIKQLQERAGVKMVMIQDGPQNTGADKPLRITGDPYKVQQAKEMVLELIRDQGGFREVRNEYGSRIGGNEGIDVPIPRFAVGIVIGRNGEMIKKIQNDAGVRIQFKPDDGTTPERIAQITGPPDRCQHAAEIITDLLRSVQAGNPGGPGPGGRGRGRGQGNWNMGPPGGLQEFNFIVPTGKTGLIIGKGGETIKSISQQSGARIELQRNPPPNADPNMKLFTIRGTPQQIDYARQLIEEKIGGPVNPLGPPVPHGPHGVPGPHGPPGPPGPGTPMGPYNPAPYNPGPPGPAPHGPPAPYAPQGWGNAYPHWQQQAPPDPAKAGTDPNSAAWAAYYAHYYQQQAQPPPAAPAGAPTTTQTNGQGDQQNPAPAGQVDYTKAWEEYYKKMGQAVPAPTGAPPGGQPDYSAAWAEYYRQQAAYYAQTSPQGMPQHPPAPQGQ | 21 | 1 | 17 | 6 | 12 | 21 | 2 | 17 | 1 | 15 | 2 | 2 | 32 |  |  |
| RBM3: host protein, UniProt P98179 (protein, UniProt P98179 1-157, looked up) RNA-binding protein 3: MSSEEGKLFVGGLNFNTDEQALEDHFSSFGPISEVVVVKDRETQRSRGFGFITFTNPEHASVAMRAMNGESLDGRQIRVDHAGKSARGTRGGGFGAHGRGRSYSRGGGDQGYGSGRYYDSRPGGYGYGYGRSRDYNGRNQGGYDRYSGGNYRDNYDN | 21 | 1 | 10 |  |  |  |  |  |  | 14 | 2 | 1 | 15 | 17 | target (unweighted spectral count, OC43 Probe II capture) (HCoV-OC43 gRNA and sgRNA; 24 hpi, type n_24_v, tested against no-probe control, FDR<10%): 6 |
| HNRNPDL (protein, UniProt O14979 1-420, looked up) Heterogeneous nuclear …: MEVPPRLSHVPPPLFPSAPATLASRSLSHWRPRPPRQLAPLLPSLAPSSARQGARRAQRHVTAQQPSRLAGGAAIKGGRRRRPDLFRRHFKSSSIQRSAAAAAATRTARQHPPADSSVTMEDMNEYSNIEEFAEGSKINASKNQQDDGKMFIGGLSWDTSKKDLTEYLSRFGEVVDCTIKTDPVTGRSRGFGFVLFKDAASVDKVLELKEHKLDGKLIDPKRAKALKGKEPPKKVFVGGLSPDTSEEQIKEYFGAFGEIENIELPMDTKTNERRGFCFITYTDEEPVKKLLESRYHQIGSGKCEIKVAQPKEVYRQQQQQQKGGRGAAAGGRGGTRGRGRGQGQNWNQGFNNYYDQGYGNYNSAYGGDQNYSGYGGYDYTGYNYGNYGYGQGYADYSGQQSTYGKASRGGGNHQNNYQPY | 25 | 1 |  | 6 | 9 | 18 | 3 |  |  |  |  | 3 | 25 | 17 |  |
| SRSF3 (protein, UniProt P84103 1-164, looked up) Serine/arginine-rich splicing …: MHRDSCPLDCKVYVGNLGNNGNKTELERAFGYYGPLRSVWVARNPPGFAFVEFEDPRDAADAVRELDGRTLCGCRVRVELSNGEKRSRNRGPPPSWGRRPRDDYRRRSPPPRRRSPRRRSFSRSRSRSLSRDRRRERSLSRERNHKPSRSFSRSRSRSRSNERK | 20 | 1 |  |  |  |  |  |  |  |  |  |  | 16 |  | background (unweighted spectral count, no-probe control) (HCoV-OC43 gRNA and sgRNA): 3; target (unweighted spectral count) (HCoV-OC43 gRNA and sgRNA): 6; target (unweighted spectral count, OC43 Probe II capture) (HCoV-OC43 gRNA and sgRNA): 18; target (unweighted spectral count, OC43 Probe II) (HCoV-OC43 gRNA and sgRNA): 16; background (spectral count, no-probe control) (gRNA of HCoV-OC43): 3; target (spectral count, OC43 Probe I RNP capture) (gRNA of HCoV-OC43): 14 |
| DDX5: host protein, UniProt P17844 (protein, UniProt P17844 1-614, looked up) Probable ATP-dependent RNA …: MSGYSSDRDRGRDRGFGAPRFGGSRAGPLSGKKFGNPGEKLVKKKWNLDELPKFEKNFYQEHPDLARRTAQEVETYRRSKEITVRGHNCPKPVLNFYEANFPANVMDVIARQNFTEPTAIQAQGWPVALSGLDMVGVAQTGSGKTLSYLLPAIVHINHQPFLERGDGPICLVLAPTRELAQQVQQVAAEYCRACRLKSTCIYGGAPKGPQIRDLERGVEICIATPGRLIDFLECGKTNLRRTTYLVLDEADRMLDMGFEPQIRKIVDQIRPDRQTLMWSATWPKEVRQLAEDFLKDYIHINIGALELSANHNILQIVDVCHDVEKDEKLIRLMEEIMSEKENKTIVFVETKRRCDELTRKMRRDGWPAMGIHGDKSQQERDWVLNEFKHGKAPILIATDVASRGLDVEDVKFVINYDYPNSSEDYIHRIGRTARSTKTGTAYTFFTPNNIKQVSDLISVLREANQAINPKLLQLVEDRGSGRSRGRGGMKDDRRDRYSAGKRGGFNTFRDRENYDRGYSSLLKRDFGAKTQNGVYSAANYTNGSFGSNFVSAGIQTSFRTGNPTGTYQNGYDSTQQYGSNVPNMHNGMNQQAYAYPATAAAPMIGYPMPTGYSQ | 24 | 1 |  | 8 |  | 31 | 3 | 33 | 3 | 30 | 3 | 3 | 32 | 30 |  |
